Laboratory results reported in patent publication US20060140929.
Numbering of substitutions follows the chain as printed.

Experiments:
[1] = tested on: T1, hirudin mutein M 2 (I29R L30H)
T1 sequence: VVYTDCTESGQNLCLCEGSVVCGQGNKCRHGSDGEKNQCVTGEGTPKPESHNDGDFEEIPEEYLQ

[2] = tested on: T2, hirudin mutein M 1 (I29A L30A)
T2 sequence: T1 sequence with R29A, H30A

Substance: thrombin
- Relative activity (ED50 variant/ED50 WT hirudin), chromogenic thrombin cleavage assay [1]: 1.2
- Relative activity (ED50 variant/ED50 WT hirudin), chromogenic thrombin cleavage assay [2]: 1.4
